Test system: homoserine dehydrogenase (Hom)
Experiment: Measurement of activity of homoserine dehydrogenase in crude extracts, desensitization by L-threonine
Type: biochemical, Corynebacterium glutamicum
Settings: 10 mM L-threonine, unlike the wild-type Hom
Procedure: The activity of the enzyme Hom was measured in the prepared strains. The wild-type strain ATCC13032 in a control group and CTR-T285I, CTR-R398Q, CTR-G378W, and CTR-G378S prepared in Example 4 were inoculated into 25 mL of the seed medium, and then cultured until reaching the late log phase. The cells were recovered by centrifugation, washed twice with a 0.1 M potassium phosphate buffer (pH 7.6), and finally suspended in 2 mL of the same buffer containing glycerol at a concentration of 30%. The cell suspension was physically disrupted by a conventional glass bead vortexing method for 10 minutes, and then the supernatant was recovered through two centrifugations (13,000 rpm, 4° C., 30 minutes) and used as a crude extract for measuring the activity of the enzyme Hom. For the measurement of the activity of Hom, a coenzyme solution (0.1 mL) was added to a reaction solution for measuring the enzyme activity (a potassium phosphate (pH 7.0) buffer, 25 mM NADPH, 5 mM aspartate semi-aldehyde), and then reacted at 30° C. The Hom activity U was defined as the number of NADPH μmol consumed per minute according to the presence of L-threonine (0 mM, 10 mM), and the results of the enzyme activity are shown in Table 2 below.

Molecule	inhibition of Hom activity by L-threonine (desensitization)
T285I: Hom (SEQ ID NO: 10), threonine at position 285 mutated to isoleucine (protein, Hom (KFCC10881-1)) MTSASAPSFNPGKGPGSAVGIALLGFGTVGTEVMRLMTEYGDELAHRIGGPLEVRGIAVSDISKPREGVAPELLTEDAFALIEREDVDIVVEVIGGIEYPREVVLAALKAGKSVVTANKALVAAHSAELADAAEAANVDLYFEAAVAGAIPVVGPLRRSLAGDQIQSVMGIVNGTTNFILDAMDSTGADYADSLAEATRLGYAEADPTADVEGHDAASKAAILASIAFHTRVTADDVYCEGISNISAADIEAAQQAGHTIKLLAICEKFTNKEGKSAISARVHPILLPVSHPLASVNKSFNAIFVEAEAAGRLMFYGNGAGGAPTASAVLGDVVGAARNKVHGGRAPGESTYANLPIADFGETTTRYHLDMDVEDRVGVLAELASLFSEQGISLRTIRQEERDDDARLIVVTHSALESDLSRTVELLKAKPVVKAINSVIRLERD	inhibition of the activity was reduced
G378S: Hom (SEQ ID NO: 13), glycine at position 378 mutated to serine (protein, Hom (KFCC10881-22)) MTSASAPSFNPGKGPGSAVGIALLGFGTVGTEVMRLMTEYGDELAHRIGGPLEVRGIAVSDISKPREGVAPELLTEDAFALIEREDVDIVVEVIGGIEYPREVVLAALKAGKSVVTANKALVAAHSAELADAAEAANVDLYFEAAVAGAIPVVGPLRRSLAGDQIQSVMGIVNGTTNFILDAMDSTGADYADSLAEATRLGYAEADPTADVEGHDAASKAAILASIAFHTRVTADDVYCEGISNISAADIEAAQQAGHTIKLLAICEKFTNKEGKSAISARVHPTLLPVSHPLASVNKSFNAIFVEAEAAGRLMFYGNGAGGAPTASAVLGDVVGAARNKVHGGRAPGESTYANLPIADFGETTTRYHLDMDVEDRVSVLAELASLFSEQGISLRTIRQEERDDDARLIVVTHSALESDLSRTVELLKAKPVVKAINSVIRLERD	inhibition of the activity was reduced
G378W: Hom (SEQ ID NO: 12), glycine at position 378 mutated to tryptophan (protein, Hom (KFCC10881-19)) MTSASAPSFNPGKGPGSAVGIALLGFGTVGTEVMRLMTEYGDELAHRIGGPLEVRGIAVSDISKPREGVAPELLTEDAFALIEREDVDIVVEVIGGIEYPREVVLAALKAGKSVVTANKALVAAHSAELADAAEAANVDLYFEAAVAGAIPVVGPLRRSLAGDQIQSVMGIVNGTTNFILDAMDSTGADYADSLAEATRLGYAEADPTADVEGHDAASKAAILASIAFHTRVTADDVYCEGISNISAADIEAAQQAGHTIKLLAICEKFTNKEGKSAISARVHPTLLPVSHPLASVNKSFNAIFVEAEAAGRLMFYGNGAGGAPTASAVLGDVVGAARNKVHGGRAPGESTYANLPIADFGETTTRYHLDMDVEDRVWVLAELASLFSEQGISLRTIRQEERDDDARLIVVTHSALESDLSRTVELLKAKPVVKAINSVIRLERD	inhibition of the activity was reduced
R398Q: Hom (SEQ ID NO: 11), arginine at position 398 mutated to glutamine (protein, Hom (KFCC10881-14)) MTSASAPSFNPGKGPGSAVGIALLGFGTVGTEVMRLMTEYGDELAHRIGGPLEVRGIAVSDISKPREGVAPELLTEDAFALIEREDVDIVVEVIGGIEYPREVVLAALKAGKSVVTANKALVAAHSAELADAAEAANVDLYFEAAVAGAIPVVGPLRRSLAGDQIQSVMGIVNGTTNFILDAMDSTGADYADSLAEATRLGYAEADPTADVEGHDAASKAAILASIAFHTRVTADDVYCEGISNISAADIEAAQQAGHTIKLLAICEKFTNKEGKSAISARVHPTLLPVSHPLASVNKSFNAIFVEAEAAGRLMFYGNGAGGAPTASAVLGDVVGAARNKVHGGRAPGESTYANLPIADFGETTTRYHLDMDVEDRVGVLAELASLFSEQGISLRTIQQEERDDDARLIVVTHSALESDLSRTVELLKAKPVVKAINSVIRLERD	inhibition of the activity was reduced
